Data on two molecules can be found in article PMC4598862, “Proteasome Activation is Mediated via a Functional Switch of the Rpt6 C-terminal Tail Following Chaperone-dependent Assembly” (Scientific Reports, 2015).

The target in one test is T1, α3-T81C-HA6 (S. cerevisiae, UniProt P23638 1-258, T81C).
T1 construct: CP subunit α3, entire open reading frame with the cysteine substitution; also called α3^HA; source: expressed from the chromosomal locus in S. cerevisiae, immunoprecipitated from lysate on HA-agarose beads; not shown: 6xHA, C-terminal, kept
T1 sequence (looked up): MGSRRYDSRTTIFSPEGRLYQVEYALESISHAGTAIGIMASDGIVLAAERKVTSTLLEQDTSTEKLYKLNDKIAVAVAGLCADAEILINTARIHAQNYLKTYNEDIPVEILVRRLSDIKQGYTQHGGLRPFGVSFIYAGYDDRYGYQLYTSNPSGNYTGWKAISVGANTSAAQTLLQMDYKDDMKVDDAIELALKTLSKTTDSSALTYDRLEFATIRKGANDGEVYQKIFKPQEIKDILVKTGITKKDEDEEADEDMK
The test is described as follows: cross-linking; proteasomes immunoprecipitated from yeast lysate on HA-agarose via the 6xHA tag of the α subunit, 1 mM ATP; engineered cysteine pair cross-linked with 0.1 mM BMOE, 1 h at 4 °C; SDS-PAGE, immunoblot for the Rpt protein and HA; wild-type and nas6Δ cells (no influence of Nas6); Rpt3-α2 also in rpt6-Δ1 cells (decreased). To be noted: partners not purified. On the technique in general: Immunoblotting shows a protein as a band on a membrane.

Test [1] addresses α2-A79C-HA6 (S. cerevisiae) (UniProt P23639). The test is described as follows: cross-linking; as a8 but with 2 mM ADP (0.5 mM ADP in the washes).

B1: Rpt6-K405C (natural protein, S. cerevisiae, UniProt Q01939 1-405, looked up)
chain: MTAAVTSSNIVLETHESGIKPYFEQKIQETELKIRSKTENVRRLEAQRNALNDKVRFIKDELRLLQEPGSYVGEVIKIVSDKKVLVKVQPEGKYIVDVAKDINVKDLKASQRVCLRSDSYMLHKVLENKADPLVSLMMVEKVPDSTYDMVGGLTKQIKEIKEVIELPVKHPELFESLGIAQPKGVILYGPPGTGKTLLARAVAHHTDCKFIRVSGAELVQKYIGEGSRMVRELFVMAREHAPSIIFMDEIDSIGSTRVEGSGGGDSEVQRTMLELLNQLDGFETSKNIKIIMATNRLDILDPALLRPGRIDRKIEFPPPSVAARAEILRIHSRKMNLTRGINLRKVAEKMNGCSGADVKGVCTEAGMYALRERRIHVTQEDFELAVGKVMNKNQETAISVAKLFC
notes: RP base ATPase Rpt6; K405 is the last residue of Rpt6; source: expressed from the chromosomal locus in S. cerevisiae, in proteasomes immunoprecipitated from lysate via α3-HA6
Regarding B1, the “percent decrease of the crosslink ratio (ATP) relative to the Rpt3-α2^HA ratio (ATP)” value in the test with α3-T81C-HA6 amounted to 43.6%.

B2: Rpt3-K428C (natural protein)
chain: MEELGIVTPVEKAVEEKPAVKSYASLLAQLNGTVNNNSALSNVNSDIYFKLKKLEKEYELLTLQEDYIKDEQRHLKRELKRAQEEVKRIQSVPLVIGQFLEPIDQNTGIVSSTTGMSYVVRILSTLDRELLKPSMSVALHRHSNALVDILPPDSDSSISVMGENEKPDVTYADVGGLDMQKQEIREAVELPLVQADLYEQIGIDPPRGVLLYGPPGTGKTMLVKAVANSTKAAFIRVNGSEFVHKYLGEGPRMVRDVFRLARENAPSIIFIDEVDSIATKRFDAQTGSDREVQRILIELLTQMDGFDQSTNVKVIMATNRADTLDPALLRPGRLDRKIEFPSLRDRRERRLIFGTIASKMSLAPEADLDSLIIRNDSLSGAVIAAIMQEAGLRAVRKNRYVILQSDLEEAYATQVKTDNTVDKFDFYC
Molecule B2 yielded a percent decrease of crosslinking under ADP relative to ATP in test [1] of 90%.
